In doi:10.1101/2021.08.25.457676, “Binding of AP endonuclease-1 to G-quadruplex DNA depends on the N-terminal domain, Mg2+ and ionic strength”:

Tests used:
D210A-APE1 [1] = biological target: T1, D210A-APE1 (Homo sapiens, UniProt P27695 1-318, D210A); experiment: fluorescence anisotropy; 140 mM K+; 20 mM Tris pH 7.4, 50 mM KOAc (or 140 mM K+ / 50 mM Li+), 0, 1 or 10 mM Mg(OAc)2, 1 mM DTT, 22 °C, 100 nM FAM-DNA, APE1 0-5000 nM; settings: protein: recombinant; tags: His (pET28HIS-hAPE1); label: 5' FAM; intramolecular parallel G4 in K+; unfolded in Li+
T1 sequence (P27695 whole entry D210A): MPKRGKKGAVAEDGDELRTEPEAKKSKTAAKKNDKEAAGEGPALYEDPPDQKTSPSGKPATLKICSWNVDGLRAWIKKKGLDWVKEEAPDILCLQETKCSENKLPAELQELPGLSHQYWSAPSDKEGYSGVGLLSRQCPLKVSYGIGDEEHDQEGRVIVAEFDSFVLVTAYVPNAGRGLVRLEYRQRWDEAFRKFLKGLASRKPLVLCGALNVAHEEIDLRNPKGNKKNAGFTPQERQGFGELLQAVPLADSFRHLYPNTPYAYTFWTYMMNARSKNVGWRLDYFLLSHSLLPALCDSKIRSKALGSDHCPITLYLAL

Δ33-D210A-APE1 = Δ33-D210A-APE1 (Homo sapiens, UniProt P27695 34-318, D210A;del1-33); experiment: fluorescence anisotropy; 10 mM Mg2+, 50 mM K+; 20 mM Tris pH 7.4, 50 mM KOAc (or 140 mM K+ / 50 mM Li+), 0, 1 or 10 mM Mg(OAc)2, 1 mM DTT, 22 °C, 100 nM FAM-DNA, APE1 0-5000 nM; settings: protein: recombinant; tags: His (pET28HIS-hAPE1); label: 5' FAM; intramolecular parallel G4 in K+; unfolded in Li+
Sequence of Δ33-D210A-APE1 (P27695 34-318 D210A): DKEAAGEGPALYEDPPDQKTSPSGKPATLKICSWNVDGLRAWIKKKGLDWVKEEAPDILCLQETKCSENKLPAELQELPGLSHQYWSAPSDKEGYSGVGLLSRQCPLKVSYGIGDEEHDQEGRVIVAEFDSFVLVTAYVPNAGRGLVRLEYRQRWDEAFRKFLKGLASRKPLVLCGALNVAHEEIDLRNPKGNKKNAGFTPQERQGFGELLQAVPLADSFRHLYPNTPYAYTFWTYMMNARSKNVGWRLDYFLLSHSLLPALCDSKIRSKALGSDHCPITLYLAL

D210A-APE1 [2] = biological target: T1, D210A-APE1; experiment: as above; settings: protein: recombinant; tags: His (pET28HIS-hAPE1); label: 5' FAM; intramolecular parallel G4 in K+; unfolded in Li+
APE1 (WT) = APE1 (WT) (Homo sapiens, UniProt P27695 1-318); experiment: fluorescence anisotropy; 0 Mg2+, EDTA, 50 mM K+; 20 mM Tris pH 7.4, 50 mM KOAc (or 140 mM K+ / 50 mM Li+), 0, 1 or 10 mM Mg(OAc)2, 1 mM DTT, 22 °C, 100 nM FAM-DNA, APE1 0-5000 nM; settings: protein: recombinant; tags: His (pET28HIS-hAPE1, Addgene 70757); label: 5' FAM; intramolecular parallel G4 in K+; unfolded in Li+
Sequence of APE1 (WT) (P27695 whole entry): as the sequence (P27695 whole entry D210A) above, with A210D counted along it

Work on CGGGGCGGGCCGGGGGCGGGGT (structured_DNA) [VEGF-4] yielded a Kd (D210A-APE1 [1]) of 20 nM, a Kd (Δ33-D210A-APE1) of 230 ± 40 nM and a Kd (D210A-APE1 [2]) of 55 ± 4 nM. For the same binder, the Kd (APE1 (WT)) was 190 ± 50 nM.
